Laboratory results: article PMC8932917

Target: Biotinylated FcγRIIIa (human) (UniProt P08637)
Assay: BLI

Sequence of UniProt P08637 (P08637 21-186): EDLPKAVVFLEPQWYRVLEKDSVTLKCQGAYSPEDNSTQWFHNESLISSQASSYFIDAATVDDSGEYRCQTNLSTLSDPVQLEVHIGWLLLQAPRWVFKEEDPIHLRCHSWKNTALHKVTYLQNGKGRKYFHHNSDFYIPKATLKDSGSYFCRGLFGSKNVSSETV

Mogamulizumab, anti-CCR4 humanized IgG1 (antibody)
fold larger kon than Ada: 3.5 fold
fold larger kon than Rtx: 4 fold
fold lower KD than Ada: > 20 fold
fold lower KD than Rtx: > 20 fold
fold smaller koff than Ada: 6 fold
fold smaller koff than Rtx: 5 fold
